This is an account of results in PMC4081103, “PARG is dispensable for recovery from transient replicative stress but required to prevent detrimental accumulation of poly(ADP-ribose) upon prolonged replicative stress”.

The target of this data set is RPA heterotrimer (RPA1, RPA2, RPA3) (UniProt P27694;P15927;P35244 1-616;1-270;1-121). Briefly: EMSA; low PAR (lanes 3-4, from 8 ng) mixed with DNA before RPA; free DNA decreased; PBS, 20 ul, 20-23 C (room temperature), 30 min; 1% agarose gel in 0.5x TBE at 4 C; pH not stated. The settings on record: protein: recombinant; copies: 1;1;1; label: 5' Cy5.5; single strand. (In EMSA bound probe runs differently from free probe, usually more slowly.)
RPA heterotrimer (RPA1, RPA2, RPA3), sequence (P27694 whole entry, chain 1 of 3): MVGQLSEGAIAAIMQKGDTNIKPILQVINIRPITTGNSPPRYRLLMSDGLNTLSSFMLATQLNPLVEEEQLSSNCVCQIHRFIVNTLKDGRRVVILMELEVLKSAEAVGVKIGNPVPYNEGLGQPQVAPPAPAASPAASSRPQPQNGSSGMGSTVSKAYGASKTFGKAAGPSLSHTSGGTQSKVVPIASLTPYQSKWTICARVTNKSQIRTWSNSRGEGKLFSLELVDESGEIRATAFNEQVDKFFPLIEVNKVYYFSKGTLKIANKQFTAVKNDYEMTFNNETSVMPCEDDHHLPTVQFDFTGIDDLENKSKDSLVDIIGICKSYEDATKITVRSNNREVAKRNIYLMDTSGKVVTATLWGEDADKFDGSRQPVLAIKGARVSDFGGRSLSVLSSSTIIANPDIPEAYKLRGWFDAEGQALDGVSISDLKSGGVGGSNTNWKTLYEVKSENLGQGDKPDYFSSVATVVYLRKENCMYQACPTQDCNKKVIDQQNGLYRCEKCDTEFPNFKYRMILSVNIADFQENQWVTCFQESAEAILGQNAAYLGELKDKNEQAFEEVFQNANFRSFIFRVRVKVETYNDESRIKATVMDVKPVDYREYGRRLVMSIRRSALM
RPA heterotrimer (RPA1, RPA2, RPA3), sequence (P15927 whole entry, chain 2 of 3): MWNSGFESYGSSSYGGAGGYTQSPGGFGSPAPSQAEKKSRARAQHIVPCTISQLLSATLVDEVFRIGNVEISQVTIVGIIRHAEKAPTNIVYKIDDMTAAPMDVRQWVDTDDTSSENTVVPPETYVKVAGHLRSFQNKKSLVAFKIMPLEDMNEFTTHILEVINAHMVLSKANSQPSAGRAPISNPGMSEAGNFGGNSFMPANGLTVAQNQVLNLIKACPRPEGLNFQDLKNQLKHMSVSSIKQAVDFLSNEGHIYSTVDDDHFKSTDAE
RPA heterotrimer (RPA1, RPA2, RPA3), sequence (P35244 whole entry, chain 3 of 3): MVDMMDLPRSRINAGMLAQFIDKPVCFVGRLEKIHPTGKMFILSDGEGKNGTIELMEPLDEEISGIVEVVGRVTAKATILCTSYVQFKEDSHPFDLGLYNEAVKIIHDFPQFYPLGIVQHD

B1: Cy5.5-oligodT 50-mer (ssDNA)
DNA: TTTTTTTTTTTTTTTTTTTTTTTTTTTTTTTTTTTTTTTTTTTTTTTTTT
With B1, the binding result is “binds”.
